B1: OR4K15 (parent)
chain: GUUAACGGUCAUAGGCCAUGGAAACUAGGAGCACCAUUUCGCUGCCAGUGAAGAAAUGAACAAAGAAAAUCUGGGCCAGGCAGGCAUCAAAAGAAAUAGUCUUGCGCUCAACCAGAAAGUCUGUAAUCAUUUUAAGGGUA

Variants of: B1
Assay: self-cleavage, relative activity (ratio to wild type); higher = more cleavage; in vitro, sequencing; the parent is a self-cleaving ribozyme

| Variant | self-cleavage |
| --- | --- |
| A54G A110G | 0.21 |
| A54G A110C | 0.2 |
| A54G A96U | 2.04 |
| A54G U139C | 1.68 |
| A54G A116G | 0.75 |
| A54G A116U | 0.27 |
| A52G U132C | 1.84 |
| A52G U132A | 0.88 |
| A52G U130G | 0.81 |
| A52G U130C | 0.75 |
| A52G U130A | 1.08 |
| A54G U100A | 0.57 |
| A52G U139C | 2.03 |
| A52G U139A | 1.5 |
| A52G U139G | 1.6 |
| A54C A64G | 1.36 |
| A52G G79A | 0.27 |
| A52U A134U | 1.41 |
| A54G A98U | 2.61 |
| A54G C128U | 1.08 |
| G53U A114U | 0.19 |
| A52U G83A | 1.64 |
| A54G A67U | 2.17 |
| A54U A125G | 0.83 |

| Variant | self-cleavage |
| --- | --- |
| A52U A126G | 1.31 |
| A52U A64G | 1.71 |
| A54U A134G | 1.32 |
| A54U A64G | 1.55 |
| G53A A117G | 2.26 |
| A54G A63G | 1.55 |
| A54G U122C | 1 |
| A54G U122A | 1.72 |
| A52G U133A | 2.06 |
| A52G G123A | 0.48 |
| G53A C128A | 0.93 |
| A52G U100G | 1.16 |
| A54G A56G | 1.01 |
| A54G A56C | 1.4 |
| A52G G106C | 0.02 |
| A52G G106A | 0.01 |
| A52U U133C | 1.72 |
| A54G C81U | 0.19 |
| A54G U108C | 0.02 |
| G53U A69G | 0.57 |
| A54G A55G | 0.99 |
| A54G A55C | 1.94 |
| A52G U97G | 1.31 |
| A52G U97C | 1.07 |

| Variant | self-cleavage |
| --- | --- |
| A52G U97A | 1.33 |
| A54C U72A | 0.43 |
| A54G A126U | 0.42 |
| A52U A59G | 1.48 |
| A52U U103C | 1.36 |
| A52U A86G | 1.61 |
| A52U A111G | 0.01 |
| A52U U131A | 1.49 |
| A52G U72C | 0.27 |
| A54G G75U | 0.12 |
| A52U A67G | 0.87 |
| A54G C112G | 0.01 |
| A54U A116G | 0.83 |
| G53U A111G | 0.04 |
| G53U A66U | 1.77 |
| A54G A68U | 1.91 |
| A52U A95G | 1.48 |
| A52G G138U | 2.54 |
| A52U G79A | 0.37 |
| G53A A60G | 1.53 |
| A54G A95G | 1.81 |
| A52G U87A | 1.23 |
| A52G U87C | 1.35 |
| A52U A110G | 0.19 |

| Variant | self-cleavage |
| --- | --- |
| A54G A62U | 1.14 |
| A54G A62G | 0.92 |
| A54G G106U | 0.02 |
| A52G G74A | 0.13 |
| A54G A59U | 0.71 |
| A54C A95G | 2.18 |
| A54G G123A | 1.14 |
| A54G C105A | 0.06 |
| A52U U132C | 1.06 |
| A54G A129G | 0.58 |
| A54G A129C | 0.76 |
| A54G A134G | 1.2 |
| A54G A66G | 1.51 |
| A54G A64U | 1.67 |
| A54G G104A | 0.09 |
| A52G U103A | 0.59 |
| G53U A118G | 1.67 |
| A52U A63G | 1.73 |
| A52U C101U | 0.19 |
| G53A A91G | 1.6 |
| A54C A60U | 1.33 |
| G53U U100C | 2.06 |
| A52U A54G | 1.25 |
| A54G A125G | 0.81 |

| Variant | self-cleavage |
| --- | --- |
| A52U A91G | 1.13 |
| A54G U124C | 0.75 |
| A54G A86U | 1.71 |
| A54U A82U | 0.24 |
| A54G A117U | 0.91 |
| A52G G104A | 0.04 |
| A52U A94G | 1.52 |
| A54U A78G | 0.25 |
| A54U A78U | 0.29 |
| A54U A78C | 0.29 |
| A54G A69G | 1.1 |
| A54G A69C | 1.39 |
| A52G U57A | 1.31 |
| A54G U130C | 0.76 |
| A54G U130A | 1.11 |
| A54G A92G | 1.37 |
| A52G U102C | 2.18 |
| A52G U102A | 0.89 |
| A52U U122A | 0.96 |
| G53A A90G | 0.74 |
| A54G U120A | 1.89 |
| A54G U120C | 0.3 |
| A52U A140G | 0.56 |
| A52U A62G | 1.23 |

| Variant | self-cleavage |
| --- | --- |
| G53U U122C | 2 |
| A54G A111U | 0.06 |
| A54G A111G | 0.03 |
| A52U G74A | 0.16 |
| A54G A94C | 1.32 |
| A54G A94G | 1.2 |
| A54G A90G | 0.86 |
| A54U A63G | 1.93 |
| A54G U127C | 1.07 |
| A52G U127A | 1.73 |
| A54G U57A | 1.26 |
| A54U A98G | 0.2 |
| A54G U72A | 0.19 |
| A54G U72C | 0.23 |
| A52U A82U | 0.2 |
| A52U A82G | 1.09 |
| A54G A91C | 1.05 |
| A54G A91G | 1.18 |
| A54G A89U | 1.61 |
| A54G A89G | 1.55 |
| G53A U130C | 1.96 |
| A54G G84C | 0.61 |
| G53A A118C | 0.99 |
| A54U A69G | 0.53 |

| Variant | self-cleavage |
| --- | --- |
| A54C | 1.41 |
| A54U | 1.2 |
| A54G | 1.06 |
| A52G G75C | 0.13 |
| A54G A82G | 0.61 |
| A54G A82U | 0.26 |
| A52G G73A | 0.11 |
| A54G C85A | 0.82 |
| A54G G136U | 2.55 |
| A52G U108A | 0.02 |
| A52G U108C | 0.02 |
| A52G U108G | 0.03 |
| A52U A116G | 1 |
| A52G U122C | 1.45 |
| A52G U120A | 2.19 |
| A52G G80U | 0.12 |
| A52U A129G | 0.81 |
| A52U U124C | 0.48 |
| A54G A78U | 0.26 |
| A54G A140G | 2.22 |
| A54G U132A | 1.73 |
| A54G A135G | 1.13 |
| A54G A135U | 0.73 |

Source: the RNAGym collection of RNA variant scans (doi:10.7554/elife.90254)
